B1: TCR32 (TCR, V domains shown)
Valpha: AQTVTQSQPEMSVQEAETVTLSCTYDTSENNYYLFWYKQPPSRQMILVIRQEAYKQQNATENRFSVNFQKAAKSFSLKISDSQLGDTAMYFCAFMTPITQGGSEKLVFGKGTKLTVNP
Vbeta: ETGVTQSPTHLIKTRGQQVTLRCSSQSGHNTVSWYQQALGQGPQFIFQYYREEENGRGNFPPRFSGLQFPNYSSELNVNALELDDSALYLCASSDRGWNEQFFGPGTRLTVL
B2: TCR79 (TCR, V domains shown)
Valpha: QKEVEQNSGPLSVPEGAIASLNCTYSDRVSQSFFWYRQYSGKSPELIMSIYSNGDKEDGRFTAQLNKASQYVSLLIRDSQPSDSATYLCAVRWAGGTSYGKLTFGQGTILTVHP
Vbeta: DTGVSQDPRHKITKRGQNVTFRCDPISEHNRLYWYRQTLGQGPEFLTYFQNEAQLEKSRLLSDRFSAERPKGSFSTLEIQRTEQGDSAMYLCATPLGRTNEQFFGPGTRLTVL
B3: TCR81 (TCR, V domains shown)
Valpha: AQTVTQSQPEMSVQEAETVTLSCTYDTSESDYYLFWYKQPPSRQMILVIRQEAYKQQNATENRFSVNFQKAAKSFSLKISDSQLGDAAMYFCAYCNPNAGKSTFGDGTTLTVKP
Vbeta: DVKVTQSSRYLVKRTGEKVFLECVQDMDHENMFWYRQDPGLGLRLIYFSYDVKMKEKGDIPEGYSVSREKKERFSLILESASTNQTSMYLCASSFRLREGLGEQFFGPGTRLTVL

Key:
[1] = molecular target: T1, KRAS G12D peptide on HLA-A*11:01 (human); experiment: killing
T1 peptide: VVVGADGVGK
Protocol: Red fluorescent Hpaf-II cells, a KRAS-G12D expressing tumor cell line transduced to express HLA-A11, were cocultured at 3:1 effector:target cell ratio with TCR32-transduced CD8⁺ T cells having wild type TRAC and TRBC loci or TCR32-transduced TRAC/TRBC double knockout (dKO) CD8⁺ T cells. Total red object integrated intensity (a measure of tumor cell volume) was evaluated over time. Red fluorescence was measured by live cell imaging using a life cell analysis system, the IncuCyte S3 microscope and software package. CD8⁺ T cell cytotoxicity is indicated by a decrease in the total red target cell area per well as compared to no treatment wells. Additional tumor cells were added at 72 and 140 hours to assess TCR-mediated tumor cell lysis by transduced T cells in the presence of persistent antigen. Reductions in tumor cells were observed when co-cultured with TCR-transduced cells (FIG. 2).

[2] = molecular target: T1, KRAS G12D peptide on HLA-A*11:01; experiment: activation reporter or marker

Row | Binder | binding result [1] | binding result [2]
1 | B1 | recognises | 
2 | B2 |  | recognises
3 | B3 |  | recognises

Reference: patent US20260027208A1 (published 2026)
